Assay results: patent US20110077196A1

Biological target: human insulin receptor isoform B (human) (UniProt P06213)
Assay: competitive displacement of 125I-Tyr^A14-insulin, plate antibody capture of receptor

Sequence of UniProt P06213 (P06213 other isoform, or with tags, fused parts or gaps): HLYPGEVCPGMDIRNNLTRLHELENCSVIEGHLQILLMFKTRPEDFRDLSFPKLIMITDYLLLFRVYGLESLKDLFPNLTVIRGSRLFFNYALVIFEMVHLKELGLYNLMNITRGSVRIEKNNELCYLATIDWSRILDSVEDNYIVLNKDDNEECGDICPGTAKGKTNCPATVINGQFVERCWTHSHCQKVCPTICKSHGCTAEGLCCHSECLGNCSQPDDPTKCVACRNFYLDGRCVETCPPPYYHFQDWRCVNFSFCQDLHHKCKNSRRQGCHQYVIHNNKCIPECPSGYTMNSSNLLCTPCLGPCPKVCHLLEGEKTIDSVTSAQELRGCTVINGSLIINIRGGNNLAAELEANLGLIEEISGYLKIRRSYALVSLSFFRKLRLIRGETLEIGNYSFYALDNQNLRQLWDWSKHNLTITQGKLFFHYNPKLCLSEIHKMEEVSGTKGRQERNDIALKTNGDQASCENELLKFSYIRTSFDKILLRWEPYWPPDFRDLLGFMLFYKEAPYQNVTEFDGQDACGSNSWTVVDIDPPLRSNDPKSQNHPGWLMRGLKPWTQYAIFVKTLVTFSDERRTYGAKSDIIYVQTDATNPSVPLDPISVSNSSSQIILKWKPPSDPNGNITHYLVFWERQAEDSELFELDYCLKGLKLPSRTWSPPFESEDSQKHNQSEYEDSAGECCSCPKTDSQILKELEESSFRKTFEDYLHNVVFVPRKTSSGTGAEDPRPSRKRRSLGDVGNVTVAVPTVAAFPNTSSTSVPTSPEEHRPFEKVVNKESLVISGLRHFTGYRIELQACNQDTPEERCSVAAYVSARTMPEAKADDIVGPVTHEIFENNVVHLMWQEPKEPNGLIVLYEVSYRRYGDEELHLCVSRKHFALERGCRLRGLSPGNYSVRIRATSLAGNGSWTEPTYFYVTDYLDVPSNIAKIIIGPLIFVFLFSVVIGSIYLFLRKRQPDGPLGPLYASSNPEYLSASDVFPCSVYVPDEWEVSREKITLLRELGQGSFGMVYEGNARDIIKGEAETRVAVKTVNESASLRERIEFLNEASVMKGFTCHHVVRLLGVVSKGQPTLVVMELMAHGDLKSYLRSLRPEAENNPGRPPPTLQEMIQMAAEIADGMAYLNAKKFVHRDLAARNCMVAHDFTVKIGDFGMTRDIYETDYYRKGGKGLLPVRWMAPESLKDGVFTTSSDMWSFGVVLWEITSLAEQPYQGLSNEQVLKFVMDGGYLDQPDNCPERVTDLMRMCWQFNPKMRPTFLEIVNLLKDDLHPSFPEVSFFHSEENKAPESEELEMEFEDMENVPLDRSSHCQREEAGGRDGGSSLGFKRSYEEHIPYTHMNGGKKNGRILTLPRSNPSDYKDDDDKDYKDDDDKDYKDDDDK

Kd: 0.04 nM
Substance: XKPEE: analogue with 2-methyl-Phe^B24 (called X), Lys^B28, Pro^B29, and EE-extension (Glu^B31, Glu^B32) (ligand)
